Test results published in patent US20230048960A1 (University of Washington, published 2023).
Square brackets hold non-standard residues; d marks the D form.

B1: AP521d (peptide)
peptide: Ac-RGE[dC]N[dL]S[dW]MNEYSGW[dT]M[dN]M[dK]MGR-NH2
modifications: also: disulfide-linked homodimer (Cys4 to Cys4 of other copy), disulfide at 4, other end not in the chain
B2: AP522m (peptide)
peptide: Ac-RGE[dC]N[dL]S[dW]MNEYYGW[dT]M[dN]M[dK]MGR-NH2
SMILES: CSCC[C@H](NC(=O)[C@@H](CCCCN)NC(=O)[C@H](CCSC)NC(=O)[C@@H](CC(N)=O)NC(=O)[C@H](CCSC)NC(=O)[C@H](NC(=O)[C@H](Cc1c[nH]c2ccccc12)NC(=O)CNC(=O)[C@H](Cc1ccc(O)cc1)NC(=O)[C@H](Cc1ccc(O)cc1)NC(=O)[C@H](CCC(=O)O)NC(=O)[C@H](CC(N)=O)NC(=O)[C@H](CCSC)NC(=O)[C@@H](Cc1c[nH]c2ccccc12)NC(=O)[C@H](CO)NC(=O)[C@@H](CC(C)C)NC(=O)[C@H](CC(N)=O)NC(=O)[C@@H](CS)NC(=O)[C@H](CCC(=O)O)NC(=O)CNC(=O)[C@H](CCCNC(=N)N)NC(C)=O)[C@H](C)O)C(=O)NCC(=O)N[C@@H](CCCNC(=N)N)C(N)=O
B3: AP522d (peptide)
peptide: Ac-RGE[dC]N[dL]S[dW]MNEYYGW[dT]M[dN]M[dK]MGR-NH2
modifications: also: disulfide-linked homodimer (Cys4 to Cys4 of other copy), disulfide at 4, other end not in the chain
B4: AP523m (peptide)
peptide: Ac-RGE[dC]N[dL]S[dW]M[dN][dE][dY][dY]GW[dT]M[dN]M[dK]MGR-NH2
SMILES: CSCC[C@H](NC(=O)[C@@H](CCCCN)NC(=O)[C@H](CCSC)NC(=O)[C@@H](CC(N)=O)NC(=O)[C@H](CCSC)NC(=O)[C@H](NC(=O)[C@H](Cc1c[nH]c2ccccc12)NC(=O)CNC(=O)[C@@H](Cc1ccc(O)cc1)NC(=O)[C@@H](Cc1ccc(O)cc1)NC(=O)[C@@H](CCC(=O)O)NC(=O)[C@@H](CC(N)=O)NC(=O)[C@H](CCSC)NC(=O)[C@@H](Cc1c[nH]c2ccccc12)NC(=O)[C@H](CO)NC(=O)[C@@H](CC(C)C)NC(=O)[C@H](CC(N)=O)NC(=O)[C@@H](CS)NC(=O)[C@H](CCC(=O)O)NC(=O)CNC(=O)[C@H](CCCNC(=N)N)NC(C)=O)[C@H](C)O)C(=O)NCC(=O)N[C@@H](CCCNC(=N)N)C(N)=O
B5: AP523d (peptide)
peptide: Ac-RGE[dC]N[dL]S[dW]M[dN][dE][dY][dY]GW[dT]M[dN]M[dK]MGR-NH2
modifications: also: disulfide-linked homodimer (Cys4 to Cys4 of other copy), disulfide at 4, other end not in the chain
B6: AP524m (peptide)
peptide: Ac-RCE[dM]N[dL]S[dW]M[dN][dE][dY][dY]GW[dT]M[dN]M[dK]MGR-NH2
SMILES: CSCC[C@H](NC(=O)[C@@H](CCCCN)NC(=O)[C@H](CCSC)NC(=O)[C@@H](CC(N)=O)NC(=O)[C@H](CCSC)NC(=O)[C@H](NC(=O)[C@H](Cc1c[nH]c2ccccc12)NC(=O)CNC(=O)[C@@H](Cc1ccc(O)cc1)NC(=O)[C@@H](Cc1ccc(O)cc1)NC(=O)[C@@H](CCC(=O)O)NC(=O)[C@@H](CC(N)=O)NC(=O)[C@H](CCSC)NC(=O)[C@@H](Cc1c[nH]c2ccccc12)NC(=O)[C@H](CO)NC(=O)[C@@H](CC(C)C)NC(=O)[C@H](CC(N)=O)NC(=O)[C@@H](CCSC)NC(=O)[C@H](CCC(=O)O)NC(=O)[C@H](CS)NC(=O)[C@H](CCCNC(=N)N)NC(C)=O)[C@H](C)O)C(=O)NCC(=O)N[C@@H](CCCNC(=N)N)C(N)=O
B7: AP525m (peptide)
peptide: Ac-RGE[dM]N[dL]S[dW]M[dN][dE][dY][dY]GW[dT]M[dN]M[dK]CGR-NH2
SMILES: CSCC[C@H](NC(=O)[C@@H](CC(N)=O)NC(=O)[C@H](CCSC)NC(=O)[C@H](NC(=O)[C@H](Cc1c[nH]c2ccccc12)NC(=O)CNC(=O)[C@@H](Cc1ccc(O)cc1)NC(=O)[C@@H](Cc1ccc(O)cc1)NC(=O)[C@@H](CCC(=O)O)NC(=O)[C@@H](CC(N)=O)NC(=O)[C@H](CCSC)NC(=O)[C@@H](Cc1c[nH]c2ccccc12)NC(=O)[C@H](CO)NC(=O)[C@@H](CC(C)C)NC(=O)[C@H](CC(N)=O)NC(=O)[C@@H](CCSC)NC(=O)[C@H](CCC(=O)O)NC(=O)CNC(=O)[C@H](CCCNC(=N)N)NC(C)=O)[C@H](C)O)C(=O)N[C@H](CCCCN)C(=O)N[C@@H](CS)C(=O)NCC(=O)N[C@@H](CCCNC(=N)N)C(N)=O
B8: AP526m (peptide)
peptide: Ac-[dR]G[dE]M[dN]L[dS]W[dM][dN][dE][dY][dS]G[dW]T[dM]N[dC]K[dM]G[dR]-NH2
SMILES: CSCC[C@H](NC(=O)[C@@H](CCC(=O)O)NC(=O)CNC(=O)[C@@H](CCCNC(=N)N)NC(C)=O)C(=O)N[C@H](CC(N)=O)C(=O)N[C@@H](CC(C)C)C(=O)N[C@H](CO)C(=O)N[C@@H](Cc1c[nH]c2ccccc12)C(=O)N[C@H](CCSC)C(=O)N[C@H](CC(N)=O)C(=O)N[C@H](CCC(=O)O)C(=O)N[C@H](Cc1ccc(O)cc1)C(=O)N[C@H](CO)C(=O)NCC(=O)N[C@H](Cc1c[nH]c2ccccc12)C(=O)N[C@H](C(=O)N[C@H](CCSC)C(=O)N[C@@H](CC(N)=O)C(=O)N[C@H](CS)C(=O)N[C@@H](CCCCN)C(=O)N[C@H](CCSC)C(=O)NCC(=O)N[C@H](CCCNC(=N)N)C(N)=O)[C@@H](C)O

What follows are binders tested against Aβ42 (UniProt P05067 672-713) (assay: cell-based or functional assay).
Aβ42, sequence (P05067 672-713 limits assumed): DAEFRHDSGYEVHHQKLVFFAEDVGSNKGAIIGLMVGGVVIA

Row | Binder | % inhibition of fibril formation (ThT), AP:Aβ42 1:1 | % inhibition of fibril formation (ThT), AP:Aβ42 1:10 | % inhibition of fibril formation (ThT), AP:Aβ42 1:100
1 | B1 | 100% | 100% | 54.3%
2 | B2 | 45.7% | 12.6% | 0%
3 | B3 | 100% | 88.1% | 52.4%
4 | B4 | 49% | 9% | 0%
5 | B5 | 100% | 87.3% | 40.3%
6 | B6 | 45.8% | 7.2% | 0%
7 | Ac-RCE[dM]N[dL]S[dW]M[dN][dE][dY][dY]GW[dT]M[dN]M[dK]MGR-NH2 (also: disulfide-linked homodimer via Cys2) [AP524d] | 100% | 86.1% | 43.1%
8 | B7 | 53.5% | 12.1% | 0%
9 | Ac-RGE[dM]N[dL]S[dW]M[dN][dE][dY][dY]GW[dT]M[dN]M[dK]CGR-NH2 (also: homodimer: Cys21 disulfide-bonded to Cys21 of other copy) [AP525d] | 99.7% | 98.3% | 89.2%
10 | B8 | 63.2% | 12.4% | 0%
